As a reminder, the IC50 is the point on the concentration scale where inhibition reaches its midpoint.

Drawing on patent US20240383994A1, this text covers IC50 and Inhibition, % of Ramos cell apoptosis for two substances.

Assay [1] concerns the target cynoCD40-mFc (monkey (cyno)). In words: flow cytometry, blocking of cynoCD40-mFc (2 µg/mL) binding to CHO-K1-cynoCD40L cells. In general terms: In flow cytometry, cells or beads pass a laser one at a time.
Assay [2] concerns the target human CD40 (hCD40), full length, on cells (human) (UniProt P25942). In words: cell-based or functional assay.

Sequence of human CD40 (hCD40), full length, on cells (human) (P25942 21-277 limits assumed): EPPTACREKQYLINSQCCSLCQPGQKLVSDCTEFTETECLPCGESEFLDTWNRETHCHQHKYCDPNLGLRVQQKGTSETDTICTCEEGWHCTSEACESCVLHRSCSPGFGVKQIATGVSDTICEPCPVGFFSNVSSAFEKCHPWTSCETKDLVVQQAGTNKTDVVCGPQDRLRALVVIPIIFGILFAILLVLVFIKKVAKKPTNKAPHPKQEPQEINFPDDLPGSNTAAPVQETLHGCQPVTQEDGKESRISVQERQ
Sequence of cynoCD40-mFc (monkey (cyno)) (chain, as listed by the source limits assumed, form in doubt): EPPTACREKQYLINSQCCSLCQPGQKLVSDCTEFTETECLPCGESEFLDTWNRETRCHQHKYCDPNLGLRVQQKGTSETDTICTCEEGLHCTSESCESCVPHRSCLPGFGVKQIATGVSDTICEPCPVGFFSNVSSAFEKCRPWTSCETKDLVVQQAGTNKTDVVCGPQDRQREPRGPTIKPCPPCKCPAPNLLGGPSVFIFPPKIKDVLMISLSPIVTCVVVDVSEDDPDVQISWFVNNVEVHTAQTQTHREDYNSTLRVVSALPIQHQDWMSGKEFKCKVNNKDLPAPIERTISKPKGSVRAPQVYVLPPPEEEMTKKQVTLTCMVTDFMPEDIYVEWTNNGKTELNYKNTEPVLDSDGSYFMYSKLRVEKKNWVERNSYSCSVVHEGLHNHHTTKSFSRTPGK

The substance Iscalimab (CFZ533) (antibody) had an IC50 in assay [1] of 24.1 nM.

Take IgG4 isotype control antibody: in assay [2], the Inhibition, % of Ramos cell apoptosis at 0.064 ng/L (so in the source) is -12%; the Inhibition, % of Ramos cell apoptosis at 0.32 ng/L (so in the source) is -9%; the Inhibition, % of Ramos cell apoptosis at 1.6 ng/L (so in the source) is -10%; the Inhibition, % of Ramos cell apoptosis at 8 ng/L (so in the source) is 0%. Also, in assay [2], the Inhibition, % of Ramos cell apoptosis at 40 ng/L (so in the source) is -20%; the Inhibition, % of Ramos cell apoptosis at 200 ng/L (so in the source) is -6%; the Inhibition, % of Ramos cell apoptosis at 1000 ng/L (so in the source) was -3%.
